Molecular target: NGF^painless (NGF variant bearing R100E+P61S mutations) (human)
Experiment: native MS

Question: “NGF^painless (NGF variant bearing R100E+P61S mutations) (ligand)” was tested. Which stoichiometry N did it give?
Answer: 2
